The record followed here is US20240132622A1 (Bristol-Myers Squibb, published 2024).

In assay [1] the target is T1, recombinant human PAD4 (human, UniProt Q9UM07 1-663). The experiment in a line: cell-based or functional assay.
Assay [2] addresses T1, recombinant human PAD4. Kind of assay: cell-based or functional assay. This is another data set of the same source.
Assay [3] deals with T2, recombinant human GST-PAD4 fusion protein (human, UniProt Q9UM07 1-663).
T2 construct: not shown: GST tag
The experiment in a line: BLI (BLITZ), GST-PAD4 on anti-GST biosensor. Here is the method: Affinity testing methods. Affinity of each antibody clone for a GST-PAD4 fusion protein was determined by Biolayer Interferometry (BLI) using a BLITZ instrument (Forte Bio, Menlo Park, California), using a biosensor chip (Anti-GST chip, Forte Bio, Cat. No. 18-5096). The biosensor was treated with citrate buffer, PBS, or PBS/Ca for 15 seconds; recombinant human GST-PAD4 was added on a drop holder for 80 seconds to prime the biosensor with PAD4; antibody was then added on the drop holder for 80 seconds to allow binding between antibody and the PAD4; PBS/PBS-Ca was added on the drop holder for 60 seconds to remove unbound antibody. The association rate constants, kₒₙ, dissociation rate constants, koff, and equilibrium dissociation constants, KD, were determined using BLITZ Pro Software, version 1.2.0.49.

The target in assay [4] is T1, recombinant human PAD4. The experiment in a line: SPR 37 C, captured antibody, PAD4 analyte, 2 mM CaCl2. Here is the method:
(§1) For SPR measurements, either an anti-human capture surface or Protein A surface (Cytiva catalog #29127555) was used. Anti-human capture surface was prepared by immobilizing anti-human capture antibody (Cytiva catalog #29234600) onto flow cells of a CM5 or CM4 biosensor following the manufacturer's amine coupling protocol (Cytiva catalog #BR-1006-33). SPR experiments were conducted at 37° C. using HBS-P (150 mM NaCl, 10 mM HEPES, pH 7.6, 0.05% Tween-20) (TEKNOVA catalog #H8032) with additional 150 mM NaCl and 1 mM or 2 mM CaCl₂) (see Table 2) or 2 mM EDTA (see Table 3) as running buffer. Antibodies were diluted to 1.5 μg/mL in the running buffer, and were captured across active biosensor flow cells at 10 μL/min for 15 to 30 seconds. […] The association and dissociation of the antibodies with PAD4 were measured. One 30 second injection followed by one 15 second injection of 10 mM glycine pH 1.5 was used to regenerate the Protein A capture surface between assay cycles. For anti-human capture surface, two 30 second injections of 3 M MgCl₂ was used for regeneration. SPR measurements for mAb20 and mAb 13 SPR were done in the presence of 2 mM CaCl₂). The remaining antibodies were tested in the presence of 1 mM CaCl₂).
(§2) Rate constants kₒₙ and koff were derived from reference flow cell- and 0 nM blank-subtracted sensorgrams, and were fit to a 1:1 binding model in Biacore® Insight Evaluation software version 3.0.12.15655. Deviations from 1:1 binding model were observed, which may be caused by increased dimerization of PAD4 at higher concentrations. The equilibrium dissociation constant, KD, was calculated as the ratio of rate constants koff/kₒₙ for each PAD4 antibody. For those antibodies that were tested in multiple SPR experiments, the average value and standard deviation from two or three separate experiments are listed in Tables 2 and 3.

In assay [5] the target is T1, recombinant human PAD4. Kind of assay: SPR 37 C, captured antibody, PAD4 analyte, 2 mM CaCl2; biphasic response, approximate KD; 2 mM CaCl2, 37 C; biphasic response. The protocol: as §1, with “SPR measurements for mAb20 and mAb 13 SPR were done in the presence of 2 mM CaCl₂). The remaining antibodies were tested in the presence of 1 mM CaCl₂).” left out
(§3) Rate constants kₒₙ and koff were derived from reference flow cell- and 0 nM blank-subtracted sensorgrams, and were fit to a 1:1 binding model in Biacore® Insight Evaluation software version 3.0.12.15655. […] The equilibrium dissociation constant, KD, was calculated as the ratio of rate constants koff/kₒₙ for each PAD4 antibody. […]

Assay [6] deals with T1, recombinant human PAD4. The experiment in a line: SPR 37 C, captured antibody, PAD4 analyte, 2 mM EDTA. The protocol:
as §1, §2

The target in assay [7] is T1, recombinant human PAD4. The experiment in a line: SPR 37 C, captured antibody, PAD4 analyte, 1 mM CaCl2. The protocol:
Their binding to human PAD4 was measured by Surface Plasmon Resonance (SPR). SPR measurements were performed with a Biacore® 8K, 8K+, or T200 instrument (Cytiva). The association rate constants, kₒₙ, dissociation rate constants, koff, and equilibrium dissociation constants, KD, of the antibodies with PAD4 were determined from these SPR measurements.
as §1
Rate constants kₒₙ and koff were derived from reference flow cell- and 0 nM blank-subtracted sensorgrams, and were fit to a 1:1 binding model in Biacore® Insight Evaluation software version 3.0.12.15655. Deviations from 1:1 binding model were observed, which may be caused by increased dimerization of PAD4 at higher concentrations. The equilibrium dissociation constant, KD, was calculated as the ratio of rate constants koff/kₒₙ for each PAD4 antibody.

In assay [8] the target is extracellular matrix (ECM) proteins. Kind of assay: ECM plate ELISA (Matrigel), 1 uM antibody, A450 over wells without sample. For orientation: An ELISA detects its analyte on a solid surface through an enzyme-linked reagent.
Assay [9] addresses T1, recombinant human PAD4. Kind of assay: SPR 37 C, captured antibody, PAD4 analyte, 1 mM CaCl2; 1 mM CaCl2, 37 C; mean of two or three experiments. The protocol:
as §1, with “SPR measurements for mAb20 and mAb 13 SPR were done in the presence of 2 mM CaCl₂). The remaining antibodies were tested in the presence of 1 mM CaCl₂).” left out
as §3

In assay [10] the target is T1, recombinant human PAD4. The experiment in a line: cell-based or functional assay. The source holds these as a separate data set.
Assay [11] addresses T3, N-His-TVMV-PAD4 (human, UniProt Q9UM07 1-663).
T3 construct: E. coli expressed; used for the cryo-EM complex with clone 13 Fab, seen as a 2:2 assembly; also called Human PAD4 (1-663); full-length PAD4 construct with cleavable N-terminal his tag
T3 chain: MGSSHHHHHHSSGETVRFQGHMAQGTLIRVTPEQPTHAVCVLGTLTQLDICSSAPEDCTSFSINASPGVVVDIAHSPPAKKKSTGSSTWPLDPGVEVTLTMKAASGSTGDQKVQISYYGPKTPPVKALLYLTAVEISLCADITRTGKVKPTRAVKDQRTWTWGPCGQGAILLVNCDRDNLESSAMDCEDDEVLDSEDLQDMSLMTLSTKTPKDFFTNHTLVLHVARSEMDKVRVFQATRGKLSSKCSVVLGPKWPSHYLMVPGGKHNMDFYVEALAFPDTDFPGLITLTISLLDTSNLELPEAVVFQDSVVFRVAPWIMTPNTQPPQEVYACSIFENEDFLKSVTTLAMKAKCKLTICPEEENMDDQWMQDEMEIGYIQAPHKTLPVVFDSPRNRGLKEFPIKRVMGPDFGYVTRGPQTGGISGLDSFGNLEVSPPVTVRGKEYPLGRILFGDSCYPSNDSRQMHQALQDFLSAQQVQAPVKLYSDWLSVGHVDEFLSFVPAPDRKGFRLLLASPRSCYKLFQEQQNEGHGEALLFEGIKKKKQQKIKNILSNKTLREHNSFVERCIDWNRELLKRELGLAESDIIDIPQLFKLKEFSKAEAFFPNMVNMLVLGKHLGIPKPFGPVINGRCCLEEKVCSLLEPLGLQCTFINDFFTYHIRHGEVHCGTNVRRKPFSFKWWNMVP
The experiment in a line: complex purified by size exclusion chromatography; cryo-EM. (In general: SEC sorts molecules by how far they enter the pores of the column.)

The target of assay [12] is T4, mouse PAD4 (mouse, UniProt Q9Z183 1-666). Kind of assay: cell-based or functional assay.
T4 sequence (Q9Z183 whole entry): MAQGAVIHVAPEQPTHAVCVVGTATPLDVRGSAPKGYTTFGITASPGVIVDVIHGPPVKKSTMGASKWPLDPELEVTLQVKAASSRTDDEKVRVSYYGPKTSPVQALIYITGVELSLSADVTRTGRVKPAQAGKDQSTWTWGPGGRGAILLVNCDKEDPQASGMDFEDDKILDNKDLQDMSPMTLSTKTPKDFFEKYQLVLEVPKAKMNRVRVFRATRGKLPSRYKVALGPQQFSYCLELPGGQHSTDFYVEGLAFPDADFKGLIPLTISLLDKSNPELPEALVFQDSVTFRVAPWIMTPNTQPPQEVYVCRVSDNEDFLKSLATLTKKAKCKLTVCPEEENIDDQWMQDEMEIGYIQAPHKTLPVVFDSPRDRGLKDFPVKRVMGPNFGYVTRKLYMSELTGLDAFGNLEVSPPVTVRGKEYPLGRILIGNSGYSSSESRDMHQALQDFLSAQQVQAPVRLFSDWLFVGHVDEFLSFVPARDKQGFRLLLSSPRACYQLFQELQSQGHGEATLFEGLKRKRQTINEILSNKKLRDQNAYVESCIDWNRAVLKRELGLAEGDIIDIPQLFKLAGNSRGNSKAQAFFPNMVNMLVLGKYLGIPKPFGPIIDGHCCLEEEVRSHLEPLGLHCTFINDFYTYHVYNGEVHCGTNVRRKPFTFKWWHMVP
The target in assay [13] is T4, mouse PAD4. Kind of assay: SPR 37 C, antibody on anti-murine capture surface, PAD4 analyte, 2 mM CaCl2. Here is the method:
SPR Methods. In general, SPR methods were as described in Example 3 above with the following modifications. An anti-murine capture surface was used that was prepared by immobilizing anti-murine capture antibody (Cytiva catalog #BR100838) onto flow cells of a CM5 biosensor following the manufacturer's amine coupling protocol (Cytiva catalog #BR-1006-33). SPR experiments were conducted at 37° C. using HBS-P (150 mM NaCl, 10 mM HEPES, pH 7.6, 0.05% Tween-20) (TEKNOVA catalog #H8032) with additional 500 mM NaCl and 2 mM CaCl₂) as running buffer. Several concentrations of PAD4, from 0.8 nM to 150 nM were prepared using the running buffer. The association and dissociation of the antibodies with PAD4 were measured. Two 90 second injections of 10 mM glycine pH 1.7 was used to regenerate the anti-murine capture surface.

Where only a bound is given, the exact number is not on record here.

T1 sequence (Q9UM07 whole entry): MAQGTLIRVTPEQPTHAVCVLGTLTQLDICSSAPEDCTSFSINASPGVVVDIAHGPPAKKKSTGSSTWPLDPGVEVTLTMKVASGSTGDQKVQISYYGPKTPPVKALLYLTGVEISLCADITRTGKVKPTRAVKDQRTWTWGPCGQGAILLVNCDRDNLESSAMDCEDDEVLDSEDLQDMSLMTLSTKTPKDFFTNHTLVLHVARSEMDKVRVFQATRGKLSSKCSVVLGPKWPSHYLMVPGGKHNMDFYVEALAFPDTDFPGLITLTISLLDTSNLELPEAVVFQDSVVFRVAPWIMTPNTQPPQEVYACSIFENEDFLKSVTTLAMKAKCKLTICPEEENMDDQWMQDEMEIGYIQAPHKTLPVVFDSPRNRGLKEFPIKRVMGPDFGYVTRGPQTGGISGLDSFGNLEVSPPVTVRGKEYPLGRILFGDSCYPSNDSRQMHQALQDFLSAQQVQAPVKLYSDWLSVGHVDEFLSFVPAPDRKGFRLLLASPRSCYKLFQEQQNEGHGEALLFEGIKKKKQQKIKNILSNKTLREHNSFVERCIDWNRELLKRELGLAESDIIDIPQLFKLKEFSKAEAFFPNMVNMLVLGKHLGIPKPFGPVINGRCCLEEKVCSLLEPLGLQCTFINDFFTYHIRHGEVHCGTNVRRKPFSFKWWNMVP

B1: clone 20 (mAb20) (antibody, V domains shown)
VH: QVQLQQSGAELARPGASVKLSCKATGYTFTNYGISWVKQRTGQGLEWIGEIYPRSGNTYHNEKFKDKATLTADKSSSTAYMEFRSLTSEDSAVYFCARSMITTRYWYFDVWGKGTTVTVSS
VL: NIVLTQSPASLAVSLGQRATLSCRASESVDTYGNSFMHWYQQKPGQPPKLLIYLASNLESGVPARFSGSGSRTDFTLTIDPVEADDAATYYCQQNNEDPLTFGAGTKLELK
notes: Murine anti-human PAD4 antibody; also called murine anti-human clone 20 antibody
A word on the Kd: it is the free concentration of one partner at which half of the binding sites on the other are occupied at equilibrium, for simple one-to-one binding. Usually koff stands for a measure of how fast the partners let go of each other. One may read the kon as the second-order rate constant of association. With B1, in assay [1], the “IC50 (average), PAD4 citrullination of peptide …, RapidFire MS” value (“IC50 (average), PAD4 citrullination” below) was 104 nM. In addition, in [2], the “IC50 of inhibition of PAD4 activity (% Activity against [AB Clone 20] nM)” value is 39.6 nM. The equilibrium dissociation constant (Kd) in assay [3] is less than 1.71 nM; in [5] it was roughly 150 nM. In addition, the koff in assay [3] is less than 1e-06 s⁻¹; in [4], 0.0062 s⁻¹. The values for the kon in [3] and in assay [4] were 583 M⁻¹ s⁻¹ and 43000 M⁻¹ s⁻¹, respectively.

B2: hz20-1 (antibody, V domains shown)
VH: QVQLVQSGAEVKKPGASVKVSCKASGYTFTNYGISWVRQAPGQGLEWMGEIYPRSGNTYHNEKFKDRVTMTRDTSTSTVYMELSSLRSEDTAVYYCARSMITTRYWYFDVWGKGTTVTVSS
VL: DIVMTQSPDSLAVSLGERATINCRASESVDTYGNSFMHWYQQKPGQPPKLLIYLASNLESGVPDRFSGSGSGTDFTLTISSLQAEDVAVYYCQQNNEDPLTFGAGTKLELK
notes: light constant region not tied to this antibody
For the molecule B2, the “IC50 (average), PAD4 citrullination” value in assay [1] is 77 nM. In assay [6], the Kd was 2.6 nM, the dissociation rate constant (koff) is 0.00054 s⁻¹ and the kon was determined as 220000 M⁻¹ s⁻¹. For the same molecule, in assay [7], the Kd is 2.7 nM and the koff was determined as 0.00089 s⁻¹. The molecule also registered an ECM Score (1 µM) in [8] of 1. In [9], the kon came to 550000 M⁻¹ s⁻¹.

B3: clone 13 (mAb13) (antibody, V domains shown)
VH: EVLLQQSGAELVKPGASVRLSCTSSDFNIKDHFIHWVKQRTEQGLEWIGRIDPEDDETKYAPKFQDKVTITADTSSNTAYLQLSSLTSEDTAVFYCAGYGNYEGAMDYWGQGTSVTVSS
VL: DIVLTQSPTSLGVSPGQRATLSCRASENVNNYGIGFMNWFQQKPGQPPKLLIYAASRRGSGVPARFSGSGSGTDFSLNIHPMEEDDTAMYFCQQSKEVPYTFGGGTNLEIR
notes: Murine anti-human PAD4 antibody; also called murine anti-human clone 13 antibody
Consider B3, for which, in assay [1], the “IC50 (average), PAD4 citrullination” value was 30 nM. For the same molecule, the “IC50 of inhibition of PAD4 activity (% Activity against [AB Clone 13] nM)” value in assay [10] was found to be 10.1 nM. In assay [3], the Kd was less than 0.0244 nM, the koff was less than 1e-06 s⁻¹ and the kon came out at 41100 M⁻¹ s⁻¹. Moreover, in [4], the Kd amounted to 3.2 nM, the off-rate constant (koff) worked out at 0.0011 s⁻¹ and the kon is 350000 M⁻¹ s⁻¹.

B4: clone 13 Fab (Fab, V domains shown)
VH: EVLLQQSGAELVKPGASVRLSCTSSDFNIKDHFIHWVKQRTEQGLEWIGRIDPEDDETKYAPKFQDKVTITADTSSNTAYLQLSSLTSEDTAVFYCAGYGNYEGAMDYWGQGTSVTVSS
VL: DIVLTQSPTSLGVSPGQRATLSCRASENVNNYGIGFMNWFQQKPGQPPKLLIYAASRRGSGVPARFSGSGSGTDFSLNIHPMEEDDTAMYFCQQSKEVPYTFGGGTNLEIRR
notes: Heavy chain fragment with C-terminal His-tag; murine constant regions; also called Fab of clone 13; Fab13
On to B4, for which the binding result in assay [11] is “binds”.

B5: mumAb (antibody, mouse IgG1, kappa, V domains shown)
VH: EVQLQQPGAELVKPGASVKLSCKASDHTFTTYWIHWVKQRPGRGLEWIGRIGPNSGGSKYNEKFRTKATLTVDKPSSTAYMQLSSLKSEDSAVYFCAFSNYLDYLDYWGQGTTLTVSS
VL: DIVLTQSPASLAVSLGQRATISCKASQSVDHDGEGYMNWYQQKPGQPPKLLIYAASNLESGIPARFSGSGSGTDFTLNIHPVEEEDAATYYCQQINEDPYTFGGGTKLEIKR
notes: Formatted as mIgG1-D265A; also called anti-murine PAD4 mAb; mouse anti-mPAD4 mumAb antibody
Turning to B5, in [12], the “IC50, mPAD4 citrullination of peptide …, RapidFire MS, 50 nM mPAD4” value was 13.2 nM. In [13], this molecule gave a Kd of 0.7 nM, an off-rate constant (koff) of 0.0002 s⁻¹ and a kon of 290000 M⁻¹ s⁻¹.
